± gives the standard deviation of the averaged measurements.

The test system of series [1] is VchCAST RNA-guided transposition machinery (E. coli BL21(DE3) host, lacZ target). The experiment in a line: relative integration efficiency (T-LR orientation) vs wild-type transposon end (log2 (normalized fold change)); transposon end mutated: right end (5 bp flank + 75 bp right end); higher = more efficient transposition. The essentials: (§1)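 Co-transformation of E. coli BL21(DE3) combined a pUC57 mini-transposon donor, holding barcoded pools of 1549 left-end or 1849 right-end variants, with a T7-driven plasmid encoding a CRISPR array, tniQ-cas8-cas7-cas6 and tnsA-tnsB-tnsC. After plating with 0.1 mM IPTG at 37°C for 18 h, input plasmids and genomic integration junctions were PCR-amplified and Illumina-sequenced across two biological output replicates, with four reference barcodes. Relative integration efficiency is the normalised, log-transformed output/input barcode fold change.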

Series [2] has the same test system. Description: relative integration efficiency (T-RL orientation) vs wild-type transposon end (log2 (normalized fold change)); transposon end mutated: right end (5 bp flank + 75 bp right end); higher = more efficient transposition. The essentials:
as §1

Turning to “ACATTTGTTGATACAACCATAAAGTGATATTTACACCCATAAATTGATATTGCTCACAACCATAAAGTGATATTTACTCTGATCATAGTCAGACCAACATTGCTACGACCCGTATTCGCACCGACAC”, the entries for the “relative integration efficiency (log2)” value in series [1] and in series [2] were 0.171 ± 0.15 and -0.237 ± 0.17, respectively.
On the same counts, the results for “ACATTTGTTGATACAACCATAAAGTGATATTTACACCCATAAATTGATATTGCTCACAACCATAAGTTGATATTTTCTCTGATCATAGTCAGACCAACATTGCTACGACCCGTATTCGCACCGACAC” are 0.0642 ± 0.26 and -0.138 ± 0.13.
On the same counts, the results for “ACATTTGTTGATACAACCATAAAGTGATATTTACACCCATAAATTGATATTGCTCACAACCATATATTGATATCTCCTCTGATCATAGTCAGACCAACATTGCTACGACCCGTATTCGCACCGACAC” are 0.671 ± 0.21 and -0.534 ± 0.18.
The matching figures for “ACATTTGTTGATACAACCATAAAGTGATATTTACACCCATAAATTGATATTGCTCACACCCATAAATTGATAATTACTCTGATCATAGTCAGACCAACATTGCTACGACCCGTATTCGCACCGACAC”: 0.595 ± 0.26 and -0.232 ± 0.12.
On to “ACATTTGTTGATACAACCATAAAGTGATATTTACACCCATAAATTGATATTGCTCACACCCATAAATTGATATTGCCTCTGATCATAGTCAGACCAACATTGCTACGACCCGTATTCGCACCGACAC”, for which the “relative integration efficiency (log2)” value was 0.438 ± 0.27 in series [1] and -0.333 ± 0.062 in series [2].
On the same counts, the results for “ACATTTGTTGATACAACCATAAAGTGATATTTACACCCATAAATTGATATTGCTCAGTGGGTATTTAACTATAACGCTCTGATCATAGTCAGACCAACATTGCTACGACCCGTATTCGCACCGACAC” are 2.56 ± 0.28 and -0.797 ± 0.16.
The matching figures for “ACATTTGTTGATACAACCATAAATACTTAATTACACCCATAAATTGATAATTATCACACCCATAAATTGATATTGCCTCTGATCATAGTCAGACCAACATTGCTACGACCCGTATTCGCACCGACAC”: -2.42 ± 0.21 and -2.25 ± 0.17.
“ACATTTGTTGATACAACCATAAATAGATAATTACACCCATAAATTGATAATTATCACACCCATAAATTGATATTGCCTCTGATCATAGTCAGACCAACATTGCTACGACCCGTATTCGCACCGACAC”: the “relative integration efficiency (log2)” value in series [1] is -0.506 ± 0.44; in series [2], -0.642 ± 0.046.
The matching figures for “ACATTTGTTGATACAACCATAAATTGATAATTACACCCATAAAATGATAATTATCACACCCATAAAATGATATTGCCTCTGATCATAGTCAGACCAACATTGCTACGACCCGTATTCGCACCGACAC”: -0.368 ± 0.16 and -0.12 ± 0.2.
The matching figures for “ACATTTGTTGATACAACCATAACATGATAATTACACCCATAACTTGATAATTATCACACCCATAACTTGATATTGCCTCTGATCATAGTCAGACCAACATTGCTACGACCCGTATTCGCACCGACAC”: -0.127 ± 0.35 and -0.3313 ± 0.00055.
On the same counts, the results for “ACATTTGTTGATACAACCATAACCGTATAATTACACCCATAAATTGATAATTATCACACCCATAAATTGATATTGCCTCTGATCATAGTCAGACCAACATTGCTACGACCCGTATTCGCACCGACAC” are -1.78 ± 0.49 and -1.41 ± 0.21.
“ACATTTGTTGATACAACCATAACCGTCGCCGGCACAAACGCCCGGTCGCCGGCGACACAAACGCCCGGTCGCGGTAAGAGGATCATAGTCAGACCAACATTGCTACGACCCGTATTCGCACCGACAC”: the entries for the “relative integration efficiency (log2)” value in series [1] and in series [2] were -6.09 ± 0.56 and -7.77 ± 0.98, respectively.
On the same counts, the results for “ACATTTGTTGATACAACCATAACCTGATAATTACACCCATAAATTGATAATTATCACACCCATAAATTGATATTGCCTCTGATCATAGTCAGACCAACATTGCTACGACCCGTATTCGCACCGACAC” are -0.337 ± 0.089 and -0.321 ± 0.01.
The matching figures for “ACATTTGTTGATACAACCATAACCTGATAATTACACCCATAACGTGATAATTATCACACCCATAACGTGATATTGCCTCTGATCATAGTCAGACCAACATTGCTACGACCCGTATTCGCACCGACAC”: -0.339 ± 0.3 and -0.513 ± 0.02.

Values taken from the supplement of paper PMC10201428.
